Patent US9205136B2, “Human aminoacyl-tRNA synthetase polypeptides useful for the regulation of angiogenesis” (THE SCRIPPS RESEARCH INSTITUTE, priority 2000, dated 2015)

Tests used:
chick CAM = test: Inhibition of VEGF165-induced or mini TyrRS-induced angiogenesis in chick CAM; format: in vivo; settings: 3 μg inhibitor; for inhibition of VEGF165-induced angiogenesis in chick CAM: 25 ng VEGF165, 72 hours; for inhibition of mini TyrRS-induced angiogenesis in chick CAM: 250 ng mini TyrRS, 72 hours
Description: In vivo angiogenesis assays were conducted in chick chorioallantoic membrane (CAM) (Nicolaou et al., 1998, Bioorg. Med. Chem. 6:1185-208). Ten-day-old chick embryos were purchased from Mcintyre Poultry (Lakeside, Calif.) and were incubated at 37° C. and 70% humidity. A small hole was made with a small crafts drill (Dremel, Emerson Electric, Racine, Wis.) directly over the air sac at the end of the egg. The embryos were candled to determine a location to drill a second hole directly over embryonic blood vessels. […] A window was cut in the eggshell over the dropped CAM, exposing the CAM to direct access for experimental manipulation. Cortisone acetate-treated 5 mm filter disks were soaked with a particular protein sample (25 ng of VEGF165 or 250 ng of a given TyrRS molecule) and the filter disks added directly to the CAMs, which were relatively devoid of preexisting blood vessels. The windows were sealed with sterile tape and incubated at 37° C. At 0, 24, and 48 hours following incubation, 3 μg of […] (IP-10) (R & D Systems, Minneapolis, Minn.) was topically applied to the filter disks. After 72 hours, the CAM tissue associated with the filter disk was harvested and quantified using a stereomicroscope. Angiogenesis was assessed as the number of visible blood vessel branch points within the defined area of the filter disks. Each determination shown in FIG. 17 represents the mean from 5-8 embryos.
The angiostatic activity of human full-length TrpRS and human mini TrpRS was also analyzed in in vivo angiogenesis assays conducted in chick CAM. In vivo angiogenesis assays were performed as described in Example 12 with 3 μg of full-length TrpRS or mini TrpRS added to VEGF165-induced or mini TyrRS-induced CAM tissue.

HUVEC [1] = test: Inhibition of VEGF165-induced cell proliferation; format: cell-based, human; settings: 2 μM TrpRS, 2 nM VEGF165, 72 hours
Description: The angiostatic activity of TrpRS was first evaluated in experiments testing the ability of human full-length TrpRS and human mini TrpRS to inhibit human VEGF165-induced cell proliferation. Tissue culture-treated 96-well plates (Corning Costar Corp., Cambridge, Mass.) were coated with 0.1% gelatin (Sigma) overnight. Cells were then seeded in the gelatinized plates at a density of 5×10^3 cells per well in DMEM medium (Gibco-BRL) containing heat-inactivated fetal bovine serum (FBS) (10%, Sigma) and penicillin/streptomycin (100 units/mL-100 μg/mL, Sigma). The following day, the cells were treated with 2 μM of a given TrpRS in the presence of 2 nM VEGF165. After 72 hours of incubation, assays were performed by using the […] 96® aqueous one-solution cell proliferation assay kit (Promega, Madison, Wis.). Results of the inhibition assay are shown in FIG. 18 as the percentage of net proliferation of VEGF165. Each determination shown represents the mean of five experiments.

HUVEC [2] = test: Inhibition of VEGF165-induced or mini TyrRS-induced HUVEC migration; format: cell-based, human; settings: for inhibition of VEGF165-induced HUVEC chemotaxis / inhibition of mini TyrRS-induced HUVEC chemotaxis: 500 nM TrpRS; for inhibition of VEGF165-induced HUVEC chemotaxis: 0.5 nM VEGF165; for inhibition of mini TyrRS-induced HUVEC chemotaxis: 50 nM mini TyrRS; for inhibition of HUVEC migration: as described in Example 14, inducer not stated
Description: Cell migration assays were performed using the modified Boyden chamber (6.5 mm Transwells) with polycarbonate membranes (8.0 μm pore size) (Costar Corp., Cambridge, Mass.) (Masood et al., 1999, Blood 93:1038-44). Wells were coated overnight with 25 μg/mL human fibronectin (Biosource International, Camarillo, Calif.) in PBS and then allowed to air-dry. HUVECs were suspended in Dulbecco's modified Eagle's medium (DMEM) (Gibco-BRL, Gaithersburg, Md.) containing 0.1% BSA (Sigma) and 2×10^5 cells per well were added to the upper chamber. The chemotactic stimulus (50 nM of a given TyrRS molecule or 0.5 nM of human vascular endothelial growth factor-165 (VEGF165) (Biosource International, Camarillo, Calif.)) was placed in the lower chamber, and the cells were allowed to migrate for 6 hours at 37° C. in a 6% CO2 incubator. After incubation, non-migrant cells were removed from the upper face of the Transwell membrane with a cotton swab and migrant cells, those attached to the lower face, were fixed in methanol and visualized with the HEMACOLOR® stain set (EM Diagnostic Systems, Gibbstown, N.J.). Migrating cells were counted in high-power fields (HPFs). HUVECs were suspended in media with the inhibitor for 30 minutes before placement in the chamber. Each determination shown in FIG. 16 represents the average of nine HPF measurements.
The angiostatic activity of TrpRS was next evaluated in experiments testing the ability of human full-length TrpRS and human mini TrpRS to inhibit human VEGF165-induced or human mini TyrRS-induced cell migration. Cell migration assays were performed as described in Example 11 with full-length TrpRS or mini TrpRS added to VEGF165-induced or mini TyrRS-induced HUVEC samples. HUVEC samples were treated with 0.5 nM VEGF165, 50 nM mini TyrRS, and 500 nM of a given TrpRS. Four measurements of chemotaxis were done for each protein. Each determination shown in FIG. 19 represents the average of nine HPF measurements. […] In contrast, human full-length TrpRS had no effect on VEGF165-induced or mini TyrRS-induced HUVEC chemotaxis.

Row | Molecule | inhibition of VEGF165-induced angiogenesis in chick CAM (chick CAM) | inhibition of mini TyrRS-induced angiogenesis in chick CAM (chick CAM) | inhibition of VEGF165-induced cell proliferation (HUVEC [1]) | inhibition of VEGF165-induced HUVEC chemotaxis (HUVEC [2]) | inhibition of mini TyrRS-induced HUVEC chemotaxis (HUVEC [2]) | inhibition of HUVEC migration (HUVEC [2])
1 | mini TrpRS: truncated TrpRS, residues 48-471 of full-length TrpRS (protein, His6 tag; Human mini TrpRS in pET20B, truncated TrpRS, residues 48-471 of full-length TrpRS) MSYKAAAGEDYKADCPPGNPAPTSNHGPDATEAEEDFVDPWTVQTSSAKGIDYDKLIVRFGSSKIDKELINRIERATGQRPHHFLRRGIFFSHRDMNQVLDAYENKKPFYLYTGRGPSSEAMHVGHLIPFIFTKWLQDVFNVPLVIQMTDDEKYLWKDLTLDQAYGDAVENAKDIIACGFDINKTFIFSDLDYMGMSSGFYKNVVKIQKHVTFNQVKGIFGFTDSDCIGKISFPAIQAAPSFSNSFPQIFRDRTDIQCLIPCAIDQDPYFRMTRDVAPRIGYPKPALLHSTFFPALQGAQTKMSASDPNSSIFLTDTAKQIKTKVNKHAFSGGRDTIEEHRQFGGNCDVDVSFMYLTFFLEDDDKLEQIRKDYTSGAMLTGELKKALIEVLQPLIAEHQARRKEVTDEIVKEFMTPRKLSFDFQKLAAALEHHHHHH | inhibited | inhibited | able to inhibit human VEGF165-induced cell proliferation | inhibited | inhibited | –
2 | supermini TrpRS: residues 71-471 of full-length TrpRS, major PMN elastase fragment (protein, His6 tag; Human supermini TrpRS in pET20B, residues 71-471 of full-length TrpRS, major PMN elastase fragment) MSNHGPDATEAEEDFVDPWTVQTSSAKGIDYDKLIVRFGSSKIDKELINRIERATGQRPHHFLRRGIFFSHRDMNQVLDAYENKKPFYLYTGRGPSSEAMHVGHLIPFIFTKWLQDVFNVPLVIQMTDDEKYLWKDLTLDQAYGDAVENAKDIIACGFDINKTFIFSDLDYMGMSSGFYKNVVKIQKHVTFNQVKGIFGFTDSDCIGKISFPAIQAAPSFSNSFPQIFRDRTDIQCLIPCAIDQDPYFRMTRDVAPRIGYPKPALLHSTFFPALQGAQTKMSASDPNSSIFLTDTAKQIKTKVNKHAFSGGRDTIEEHRQFGGNCDVDVSFMYLTFFLEDDDKLEQIRKDYTSGAMLTGELKKALIEVLQPLIAEHQARRKEVTDEIVKEFMTPRKLSFDFQKLAAALEHHHHHH | capable of inhibiting | capable of inhibiting | capable of inhibiting HUVEC proliferation and migration | – | – | capable of inhibiting HUVEC proliferation and migration
3 | inactive TrpRS: minor PMN elastase fragment of TrpRS, amino-terminal residue at position 94 of full-length TrpRS (protein, His6 tag; Human inactive TrpRS in pET20B, minor PMN elastase fragment of TrpRS, amino-terminal residue at position 94 of full-length TrpRS) MSAKGIDYDKLIVRFGSSKIDKELINRIERATGQRPHHFLRRGIFFSHRDMNQVLDAYENKKPFYLYTGRGPSSEAMHVGHLIPFIFTKWLQDVFNVPLVIQMTDDEKYLWKDLTLDQAYGDAVENAKDIIACGFDINKTFIFSDLDYMGMSSGFYKNVVKIQKHVTFNQVKGIFGFTDSDCIGKISFPAIQAAPSFSNSFPQIFRDRTDIQCLIPCAIDQDPYFRMTRDVAPRIGYPKPALLHSTFFPALQGAQTKMSASDPNSSIFLTDTAKQIKTKVNKHAFSGGRDTIEEHRQFGGNCDVDVSFMYLTFFLEDDDKLEQIRKDYTSGAMLTGELKKALIEVLQPLIAEHQARRKEVTDEIVKEFMTPRKLSFDFQKLAAALEHHHHHH | did not exhibit angiostatic activity | did not exhibit angiostatic activity | did not exhibit angiostatic activity | – | – | did not exhibit angiostatic activity
4 | full-length TrpRS: recombinant human tryptophanyl-tRNA synthetase, 471 amino acid residues (protein, His6 tag; Human full-length TrpRS in pET20B, recombinant human tryptophanyl-tRNA synthetase, 471 amino acid residues) MPNSEPASLLELFNSIATQGELVRSLKAGNASKDEIDSAVKMLVSLKMSYKAAAGEDYKADCPPGNPAPTSNHGPDATEAEEDFVDPWTVQTSSAKGIDYDKLIVRFGSSKIDKELINRIERATGQRPHHFLRRGIFFSHRDMNQVLDAYENKKPFYLYTGRGPSSEAMHVGHLIPFIFTKWLQDVFNVPLVIQMTDDEKYLWKDLTLDQAYGDAVENAKDIIACGFDINKTFIFSDLDYMGMSSGFYKNVVKIQKHVTFNQVKGIFGFTDSDCIGKISFPAIQAAPSFSNSFPQIFRDRTDIQCLIPCAIDQDPYFRMTRDVAPRIGYPKPALLHSTFFPALQGAQTKMSASDPNSSIFLTDTAKQIKTKVNKHAFSGGRDTIEEHRQFGGNCDVDVSFMYLTFFLEDDDKLEQIRKDYTSGAMLTGELKKALIEVLQPLIAEHQARRKEVTDEIVKEFMTPRKLSFDFQKLAAALEHHHHHH | no observable angiostatic activity | no observable angiostatic activity | exhibited no angiostatic activity | had no effect | had no effect | –
